Reference: the supplement of paper PMC7877785
± gives the uncertainty stated by the source.

Assay: self-splicing fitness, log relative to wild type (ln ratio); higher = more splicing; Tetrahymena group I intron in knt gene, E. coli kanamycin selection, DiMSum; sequences stand for … in CUCUCU…GGAGGGAAAAGUUAUCAGGCAUGCACCUGGUAGCUAGUCUUUAAACCAAUAGAUUGCAUCGGUUUAAAAGGCAAGACCGUCAAAUUGCGGGAAAGGGGUCAACAGCCGUUCAGUACCAAGUCUCAGGGGAAACUUUGAGAUGGCCUUGCAAAGGGUAUGGUAAUAAGCUGACGGACAUGGUCCUAACCACGCAGCCAAGUCCUAAGUCAACAGAUCUUCUGUUGAUAUGGAUGCAGUUCACAGACUAAAUGUCGGUCGGGGAAGAUGUAUUCUUCUCAUAAGAUAUAGUCGGACCUCUCCUUAAUGGGAGCUAGCGGAUGAAGUGAUGCAACACUGGAGCCGCUGGGAACUAAUUUGUAUGCGAAAGUAUAUUGAUUAGUUUUGGAGUACUCGUGGUCG
Outline: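 Fitness was computed with DiMSum as the error-weighted combination of replicate fold changes, kanamycin versus none, each normalised to wild type. The library randomised all eight intron nucleotides of the P1ex region, with the intron placed in the knt kanamycin-resistance gene on pET-22b(+) in E. coli BL21(DE3). Six replicate transformations were grown overnight at 37°C or 30°C on LB agar with or without 25 μg/mL kanamycin, plus 100 μg/mL carbenicillin, 50 μM IPTG and 0.2% rhamnose. Pooled colonies were amplicon-sequenced on an Illumina HiSeq 2500.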

Sequence | self-splicing fitness (ln) (30 °C) | self-splicing fitness (ln) (37 °C)
AGAAAGCAAUAUUACGUGAG | -1.39 ± 0.065 | -0.952 ± 0.099
CGCAAGCAAUAUUACGAAUG | -1.4 ± 0.1 | -0.303 ± 0.1
GCGUAGCAAUAUUACGGUAC | -2.72 ± 0.25 | -1.44 ± 0.19
UACAAGCAAUAUUACGUUGA | -2.72 ± 0.17 | -2.06 ± 0.15
CUGCAGCAAUAUUACGAGAA | -2.56 ± 0.35 | -2.64 ± 0.33
ACCUAGCAAUAUUACGAGGU | -3.09 ± 0.17 | -2.43 ± 0.17
CGCGAGCAAUAUUACGACAG | -0.942 ± 0.11 | -0.403 ± 0.16
GCCCAGCAAUAUUACGAUUC | -1.56 ± 0.074 | -0.274 ± 0.09
AAGAAGCAAUAUUACGUUGC | -4.64 ± 0.31 | -3.65 ± 0.32
CAGAAGCAAUAUUACGUGUC | -3.9 ± 0.25 | -4 ± 0.27
GUAUAGCAAUAUUACGGGAA |  | -2.54 ± 0.4
GUCCAGCAAUAUUACGUGUU | -1.52 ± 0.055 | -0.617 ± 0.068
AUUGAGCAAUAUUACGCAAA | -3.02 ± 0.29 | 
UCCCAGCAAUAUUACGGGUU | -2.48 ± 0.07 | -1.54 ± 0.079
GGGAAGCAAUAUUACGGGCG | -1.14 ± 0.13 | -0.362 ± 0.15
AUUAAGCAAUAUUACGCCAC |  | -1.53 ± 0.39
CAUAAGCAAUAUUACGCACC | -2.33 ± 0.4 | -0.0667 ± 0.48
UAGAAGCAAUAUUACGAGUC | -2.76 ± 0.39 | -2.02 ± 0.33
GCGUAGCAAUAUUACGGUCC | -1.23 ± 0.38 | -1.02 ± 0.3
UGACAGCAAUAUUACGUAUA | -2.19 ± 0.092 | -0.776 ± 0.096
CUUCAGCAAUAUUACGAAAU | -2.2 ± 0.31 | -2.4 ± 0.5
UGCAAGCAAUAUUACGCAGC | -3.6 ± 0.23 | -2.58 ± 0.23
UCACAGCAAUAUUACGAGGG | -2.01 ± 0.088 | -1.28 ± 0.12
GUAGAGCAAUAUUACGUAUG | -3.88 ± 0.22 | -3.78 ± 0.23
CCGGAGCAAUAUUACGGAAU | -2.95 ± 0.26 | -2.96 ± 0.25

Sequence | self-splicing fitness (ln) (30 °C) | self-splicing fitness (ln) (37 °C)
AUCCAGCAAUAUUACGUUUC | -4.16 ± 0.25 | -2.05 ± 0.2
ACCCAGCAAUAUUACGGUAC | -2.51 ± 0.081 | -0.741 ± 0.078
GUCUAGCAAUAUUACGGGUA | -1.28 ± 0.11 | -0.285 ± 0.09
CGAGAGCAAUAUUACGCAAC | -1.2 ± 0.34 | -2.34 ± 0.35
CCUCAGCAAUAUUACGCAGC | -3.42 ± 0.14 | -2.49 ± 0.17
GGUAAGCAAUAUUACGACUC | 0.295 ± 0.12 | -0.605 ± 0.18
AAACAGCAAUAUUACGGUCC | -2.09 ± 0.12 | -0.775 ± 0.11
GCAGAGCAAUAUUACGAACG |  | -1.78 ± 0.43
GAGCAGCAAUAUUACGGCUU | -4.43 ± 0.33 | -2.53 ± 0.27
GGGCAGCAAUAUUACGGUAG | -3.2 ± 0.19 | -1.34 ± 0.19
CUUAAGCAAUAUUACGUCAU | -4.2 ± 0.26 | -2.84 ± 0.19
UGUGAGCAAUAUUACGUCCG | -0.363 ± 0.12 | -0.0626 ± 0.17
CGGAAGCAAUAUUACGCAUA |  | -1.12 ± 0.27
UGAGAGCAAUAUUACGACCA | -1.91 ± 0.14 | -1.14 ± 0.21
UCGAAGCAAUAUUACGCGGG | -2.18 ± 0.19 | -1.68 ± 0.19
CUUUAGCAAUAUUACGACAG | -0.431 ± 0.071 | -0.339 ± 0.097
AGCCAGCAAUAUUACGCGUA | -1.99 ± 0.13 | -1.44 ± 0.14
CCGGAGCAAUAUUACGCGGC | -3.5 ± 0.31 | -2.33 ± 0.26
GUCAAGCAAUAUUACGGUGA | -2.82 ± 0.21 | -2.22 ± 0.21
UGGUAGCAAUAUUACGCCCG | 0.0173 ± 0.14 | -0.718 ± 0.17
UCUAAGCAAUAUUACGAGUU | -2.94 ± 0.2 | -3.27 ± 0.28
CCCUAGCAAUAUUACGGUUG | -3.3 ± 0.14 | -2.04 ± 0.11
GCCUAGCAAUAUUACGAUCA | -2.27 ± 0.27 | -2.22 ± 0.18
UACUAGCAAUAUUACGCAUA | -1.99 ± 0.14 | -0.0544 ± 0.09
AGUUAGCAAUAUUACGUCCG | -1.32 ± 0.15 | -0.0933 ± 0.19

Sequence | self-splicing fitness (ln) (30 °C) | self-splicing fitness (ln) (37 °C)
ACAGAGCAAUAUUACGAAUG | -3.82 ± 0.16 | -2.51 ± 0.19
AUCGAGCAAUAUUACGCGCG | -2.29 ± 0.15 | -0.653 ± 0.16
UGACAGCAAUAUUACGGCGC | -2.47 ± 0.15 | -1.25 ± 0.15
UCCAAGCAAUAUUACGGCAG | -4.85 ± 0.46 | -2.84 ± 0.28
AUAAAGCAAUAUUACGCCAC | -1.94 ± 0.38 | 
GACCAGCAAUAUUACGUUAA | -1.13 ± 0.093 | -0.35 ± 0.1
CAACAGCAAUAUUACGGCAC | -2.31 ± 0.13 | -1.61 ± 0.13
CGAAAGCAAUAUUACGAAUG | -0.194 ± 0.057 | 0.263 ± 0.08
GACAAGCAAUAUUACGCACA | -0.149 ± 0.086 | -0.296 ± 0.11
AUGUAGCAAUAUUACGGGUC | -3.49 ± 0.4 | -2.95 ± 0.43
AAAAAGCAAUAUUACGUGUU | -2.04 ± 0.055 | -1.22 ± 0.068
CUACAGCAAUAUUACGCCCU | -3.11 ± 0.2 | -2.85 ± 0.29
GACUAGCAAUAUUACGGAAG | -3.56 ± 0.19 | -2.21 ± 0.19
UGCGAGCAAUAUUACGUUAG | -2.68 ± 0.27 | -2.01 ± 0.33
GCUGAGCAAUAUUACGUACC | -1.54 ± 0.13 | -0.328 ± 0.18
CAUCAGCAAUAUUACGAACU | -3.37 ± 0.21 | -0.499 ± 0.17
GUGCAGCAAUAUUACGGCCG | -1.8 ± 0.26 | -1.12 ± 0.3
CAUGAGCAAUAUUACGGCUU | -2.99 ± 0.17 | -2.92 ± 0.29
AGAAAGCAAUAUUACGUUAU | -2.29 ± 0.099 | -1.58 ± 0.13
GUUCAGCAAUAUUACGCGUG | -0.852 ± 0.083 | 0.166 ± 0.088
CCACAGCAAUAUUACGCAGA | -3.08 ± 0.17 | -2.89 ± 0.16
AGGUAGCAAUAUUACGCCCU | -3.56 ± 0.048 | -2.45 ± 0.058
AAGAAGCAAUAUUACGCUAC | -2.18 ± 0.24 | -1.93 ± 0.44
UGCGAGCAAUAUUACGCGGG | -2.61 ± 0.3 | 
CCUCAGCAAUAUUACGUGAA | -3.66 ± 0.2 | -2.22 ± 0.2

Sequence | self-splicing fitness (ln) (30 °C) | self-splicing fitness (ln) (37 °C)
CAGAAGCAAUAUUACGCACU | -2.13 ± 0.14 | -1.36 ± 0.14
GCAUAGCAAUAUUACGCGAG | -2.42 ± 0.23 | -1.72 ± 0.17
UCUGAGCAAUAUUACGUUUG | -4.82 ± 0.29 | -1.81 ± 0.15
AAACAGCAAUAUUACGUCAU | -3.39 ± 0.12 | -1.55 ± 0.085
UCCCAGCAAUAUUACGUCAA | -2.71 ± 0.18 | -1.13 ± 0.16
UCCAAGCAAUAUUACGAGUC | -3.66 ± 0.19 | -2.97 ± 0.24
GAAUAGCAAUAUUACGUAGC | -3.4 ± 0.17 | -1.1 ± 0.12
UUUCAGCAAUAUUACGUGAC | -2.99 ± 0.22 | -1.73 ± 0.48
CCCCAGCAAUAUUACGUAAU | -3.53 ± 0.11 | -1.67 ± 0.11
UAAUAGCAAUAUUACGAGUG | -1.11 ± 0.08 | -0.572 ± 0.09
CGCAAGCAAUAUUACGUGUC | -2.39 ± 0.12 | -2.68 ± 0.16
UAGCAGCAAUAUUACGUAUG | -1.13 ± 0.061 | -0.563 ± 0.084
GAGGAGCAAUAUUACGGCAC | -2.08 ± 0.19 | -1.64 ± 0.19
UCCAAGCAAUAUUACGGGCU | -3.43 ± 0.14 | -1.95 ± 0.12
UAAUAGCAAUAUUACGACGG | -1.51 ± 0.11 | -0.463 ± 0.13
GUCUAGCAAUAUUACGCGUG | -0.894 ± 0.058 | -0.777 ± 0.072
UGUCAGCAAUAUUACGCCAA | -0.858 ± 0.13 | -0.585 ± 0.13
GCAGAGCAAUAUUACGUAUC | -2.59 ± 0.33 | -2.08 ± 0.41
CGACAGCAAUAUUACGAAAG | -1.22 ± 0.13 | -0.409 ± 0.17
UCCGAGCAAUAUUACGCUAA |  | -2.86 ± 0.32
UAUAAGCAAUAUUACGUUCU | -1.03 ± 0.14 | -1.41 ± 0.2
GCUGAGCAAUAUUACGAUUA | -2.88 ± 0.37 | -0.431 ± 0.38
CUCUAGCAAUAUUACGCUGC | -3.58 ± 0.44 | 
